In article PMC10522483:

Target: S. lophii 70S ribosome (Spraguea lophii (endogenous in spores))
Assay: cryo-EM structure; electron cryo-tomography and subtomogram averaging of ribosomes in situ in polar tubes of spores germinated on the grid; dimer map 14.3 Å (C2 symmetry, 1,191 particles), half-dimer map 10.8 Å; single-particle atomic model fitted into the maps

percent of ribosome particles in 100S dimers: 80% | stoichiometry N: 2
Substance: S. lophii 70S ribosome (complex)
